As usually defined, the Kd is the constant that tells how readily two partners part at equilibrium.

Test [1] concerns the target T1, human TGFβ3, mature dimeric form (human, UniProt P10600 301-412).
T1 construct: Peprotech, expressed in E. coli; also called TGFb3
T1 sequence: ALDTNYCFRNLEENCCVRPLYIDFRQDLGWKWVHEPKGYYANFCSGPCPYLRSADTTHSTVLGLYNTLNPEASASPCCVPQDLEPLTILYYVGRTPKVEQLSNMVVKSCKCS
Kind of test: SPR.

Test [2] addresses T2, human TGFβ2, mature receptor-binding domain (human, UniProt P09858 303-414 (pig entry), The mature TGFβ2 is a disulfide-linked homodimer of this 112-residue chain. The 4A11 epitope spans both monomers (p-1207).).
T2 construct: Peprotech; also called TGFb2
T2 sequence: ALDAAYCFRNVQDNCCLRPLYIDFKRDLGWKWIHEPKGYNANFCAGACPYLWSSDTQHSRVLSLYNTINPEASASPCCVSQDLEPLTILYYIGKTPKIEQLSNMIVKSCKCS
The experiment in a line: SPR. For orientation: In SPR one partner is held on a chip, and binding of the other changes the refractive index at the surface.

Test [3] deals with T1, human TGFβ3, mature dimeric form. Kind of test: SPR. The source holds these as a separate data set.
Test [4] concerns the target T2, human TGFβ2, mature receptor-binding …. Kind of test: BIAcore T200. An outline of the steps: (§1)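 SPR kinetics on protein A-captured humanized 2A10 variants (~100 RU), with 3-fold serial dilutions of TGFβ (0.02 nM to 5 nM) injected in HBS-EP, pH 7.4, at 25° C and 50 μl/min. kon and koff from a 1:1 Langmuir fit; KD = koff/kon.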
Test [5] addresses T1, human TGFβ3, mature dimeric form. Kind of test: BIAcore T200. The method, boiled down: as §1
For test [6], the target named is T2, human TGFβ2, mature receptor-binding …. The experiment in a line: BIAcore T200. The protocol: (§2) For binding affinity determinations of all humanized 2A10 antibodies, Surface Plasmon Resonance (SPR) measurement with a BIAcore™-T200 instrument was used. Briefly, series S CM5 biosensor chip with protein A was first applied to capture each humanized 2A10 variant to achieve approximately 100 response units (RU) on each flow cell, following by injection of 3-fold serial dilutions of human TGFβ1, TGFβ2 or TGFβ3 (0.02 nM to 5 nM) in HBS-EP buffer (0.01M HEPES pH 7.4, 0.15M NaCl, 3 mM EDTA and 0.05% v/v surfactant P20) at 25° C. with a flow rate of 50 μl/min for kinetics measurement. Association rates (ko.) and dissociation rates (koff) were calculated using a simple one-to-one Langmuir binding model (BIAcore T200 evaluation software version 2.0) to determine the equilibrium dissociation constant (KD), which was calculated as the ratio koff/kₒₙ.
The source holds these as a separate data set.

The target of test [7] is T1, human TGFβ3, mature dimeric form. The experiment in a line: BIAcore T200. The protocol: as §2
The source holds these as a separate data set.

The target is the same in test [8]. The experiment in a line: cell-based or functional assay.
In test [9] the target is T3, human TGFβ1, mature receptor-binding domain (human, UniProt P01137 279-390). Kind of test: cell-based or functional assay.
Test [10] concerns the target T2, human TGFβ2, mature receptor-binding …. The experiment in a line: cell-based or functional assay.
Test [11] concerns the target T1, human TGFβ3, mature dimeric form. Kind of test: cell-based or functional assay. The source holds these as a separate data set.
Test [12] addresses T3, human TGFβ1, mature receptor-binding …. The experiment in a line: cell-based or functional assay. The source holds these as a separate data set.
Test [13] deals with T2, human TGFβ2, mature receptor-binding …. Kind of test: cell-based or functional assay. The source holds these as a separate data set.
Test [14] deals with T1, human TGFβ3, mature dimeric form. The experiment in a line: cell-based or functional assay. The source holds these as a separate data set.
Test [15] has as its target T3, human TGFβ1, mature receptor-binding …. The experiment in a line: cell-based or functional assay. The source holds these as a separate data set.
Test [16] has as its target T2, human TGFβ2, mature receptor-binding …. The experiment in a line: cell-based or functional assay. This is another data set of the same source.
Test [17] addresses T1, human TGFβ3, mature dimeric form. The experiment in a line: cell-based or functional assay. This is another data set of the same source.
Test [18] deals with T3, human TGFβ1, mature receptor-binding …. Kind of test: BIAcore T200; humanization BIAcore study (Tables 9 and 11), bound only.
The target is the same in test [19]. Kind of test: SPR; Table 4 screening SPR, affinity at 25 C; no blocking of TGFb1 (>500 nM at 37 C).
The target of test [20] is T2, human TGFβ2, mature receptor-binding …. The experiment in a line: SPR. The source holds these as a separate data set.
For test [21] the target is unchanged. Kind of test: BIAcore T200. The source holds these as a separate data set.
The target is the same in test [22]. Kind of test: cell-based or functional assay. This is another data set of the same source.
Test [23] shares this target. Kind of test: Biacore SPR.
Test [24] concerns the target T4, mouse TGFβ2, mature peptide (mouse, UniProt P27090 303-414).
T4 construct: mature
T4 sequence (looked up): T2 sequence with S59T, R60K, K94N
Kind of test: Biacore SPR.

The target in test [25] is T3, human TGFβ1, mature receptor-binding …. The experiment in a line: cell-based or functional assay. The source holds these as a separate data set.
Test [26] deals with T2, human TGFβ2, mature receptor-binding …. Kind of test: cell-based or functional assay. This is another data set of the same source.
Test [27] concerns the target T1, human TGFβ3, mature dimeric form. Kind of test: cell-based or functional assay. The source holds these as a separate data set.
The target of test [28] is T3, human TGFβ1, mature receptor-binding …. Kind of test: cell-based or functional assay. This is another data set of the same source.
The target in test [29] is T2, human TGFβ2, mature receptor-binding …. Kind of test: cell-based or functional assay. This is another data set of the same source.
The target in test [30] is T1, human TGFβ3, mature dimeric form. Kind of test: cell-based or functional assay. The source holds these as a separate data set.
Test [31] addresses T2, human TGFβ2, mature receptor-binding …. Kind of test: cell-based or functional assay. The source holds these as a separate data set.
For test [32], the target named is T4, mouse TGFβ2, mature peptide. Kind of test: cell-based or functional assay.
Test [33] deals with T3, human TGFβ1, mature receptor-binding …. The experiment in a line: BIAcore T200. Here is the method: as §2
Test [34] deals with T2, human TGFβ2, mature receptor-binding …. Kind of test: BIAcore T200. Here is the method: as §2
The source holds these as a separate data set.

Test [35] addresses T1, human TGFβ3, mature dimeric form. Kind of test: BIAcore T200. Here is the method:
as §2
The source holds these as a separate data set.

Test [36] deals with T3, human TGFβ1, mature receptor-binding …. The experiment in a line: cell-based or functional assay. This is another data set of the same source.
Test [37] has as its target T2, human TGFβ2, mature receptor-binding …. The experiment in a line: cell-based or functional assay. The source holds these as a separate data set.
Test [38] deals with T1, human TGFβ3, mature dimeric form. Kind of test: cell-based or functional assay. The source holds these as a separate data set.

Positions count from the first letter of the chain named. Read-outs that look alike come from different tables or passages of the source.

T3 sequence (P01137 279-390 limits assumed): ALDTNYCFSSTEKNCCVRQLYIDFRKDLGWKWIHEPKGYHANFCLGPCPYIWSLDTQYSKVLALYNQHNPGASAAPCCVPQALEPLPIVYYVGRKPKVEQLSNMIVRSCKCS

B1: 2A10 (antibody, V domains shown)
VH: EVQLVESGGGLVQPKGSLKLSCAASGFDFNSYGMSWVRQAPGKGLDLVADIVSKTYNYTTYYSDSVKDRFTISRDDSQSMVYLQMDNLKTEDTALYYCTVAPGGSFDYWGQGVMVTVSS
VL: DIVLTQSPALAVSLGQRATISCRASQSVSISRFNLMHWYQHKPGQQPKLLIYRASNLASGIPARFSGSGSGTDFTLTINPVQADDLATYYCQHSRESPWTFGGGTKLEIK
notes: anti-TGFβ3; also called rat 2A10; r2A10
Consider B1, for which the dissociation constant (Kd) was under 0.01 nM in test [1]; 0.046 nM in test [2]; under 0.002 nM in [3]; 0.0628 nM in [4]; 0.0012 nM in test [5]; 0.0628 nM in [6]. Further, the figures for the dissociation constant (Kd) in test [7], in test [18] and in test [19] were 0.0012 nM, over 5 nM and 1.6 nM, respectively. For the same molecule, the “cell-based IC50” value in test [8] is under 0.25 nM. Besides, the “Blocking IC50” value was over 500 nM in [9], 193 nM in test [10] and 0.02 nM in test [11]. The “HEKBlue TGFβ blocking IC50” value in test [12] is over 200 nM; in test [13], 70 nM; in test [14] it was 0.01 nM; in test [15], over 200 nM; in test [16] it was 70 nM; in test [17] it was 0.01 nM.

B2: 6F12 (antibody, V domains shown)
VH: QVQLKESGPGLVQPSQTLSLTCTVSGFSLTTYNVHWVRQPPGKGLEWMGLIWNTGGTRYNSALKSRLSISKDTSKSQVFLRMNSLQTEDTATYYCARDPVPNKWHFDFWGPGTMVTVSS
VL: DIQMTQSPASLSASLGETVTIECLASEDIYSNLAWYQQKPGKSPQLLIYDARSLQDGVPSRFSGSESGPQYSLEINSLQSEDAVTYFCQQHHAYPFTFGSGTKLEIK
notes: anti-TGFβ2; called rat and rabbit in different places; also called rat 6F12; r6F12
As to B2, the Kd is under 0.01 nM in test [20]; under 0.001 nM in test [2]; at most 0.0005 nM in [21]; under 0.001 nM in test [23]; under 0.001 nM in [24]. The “cell-based IC50” value in test [22] is under 0.25 nM. Besides, the “fold potency against 1D11” value in test [22] was about 100 fold. In addition, the figures for the “Blocking IC50” value in test [9], in [10] and in test [11] were over 500 nM, 0.04 nM and over 500 nM, respectively. For the same molecule, the “HEKBlue TGFβ blocking IC50” value in test [25] was over 200 nM; in test [26] it was 0.004 nM; in test [27], over 200 nM; in test [28] it was over 200 nM; in test [29] it was 0.004 nM; in test [30] it was over 200 nM. Moreover, the “IC50 (read off the curve)” value in test [31] is about 0.03 nM; in [32], about 0.06 nM.

B3: h2A10.v2 (antibody, human IgG1, kappa, N297G)
heavy: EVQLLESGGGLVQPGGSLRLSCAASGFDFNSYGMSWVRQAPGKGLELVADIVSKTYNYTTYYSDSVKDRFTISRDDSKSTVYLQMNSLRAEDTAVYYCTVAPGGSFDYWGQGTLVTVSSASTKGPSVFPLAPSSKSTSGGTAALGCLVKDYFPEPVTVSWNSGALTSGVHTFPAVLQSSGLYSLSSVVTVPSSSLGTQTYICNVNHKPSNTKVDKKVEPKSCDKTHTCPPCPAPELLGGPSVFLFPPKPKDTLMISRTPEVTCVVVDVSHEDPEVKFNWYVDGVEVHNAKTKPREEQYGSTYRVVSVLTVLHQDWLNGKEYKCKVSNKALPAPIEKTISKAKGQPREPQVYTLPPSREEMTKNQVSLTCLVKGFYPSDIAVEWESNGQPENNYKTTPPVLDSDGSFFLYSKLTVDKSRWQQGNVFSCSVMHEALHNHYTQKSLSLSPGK
light: DIQLTQSPSSLSASVGDRVTITCRASQSVSISRFNLMHWYQHKPGKQPKLLIYRASNLASGIPSRFSGSGSGTDFTLTISSLQPEDFATYYCQHSRESPWTFGGGTKVEIKRTVAAPSVFIFPPSDEQLKSGTASVVCLLNNFYPREAKVQWKVDNALQSGNSQESVTEQDSKDSTYSLSSTLTLSKADYEKHKVYACEVTHQGLSSPVTKSFNRGEC
notes: also called humanized 2A10 version 2
As for B3, the Kd in [4] was 0.314 nM; in [5], 0.0013 nM; in test [33], over 5 nM; in [34] it was 0.314 nM; in [35], 0.0013 nM. Also, the “HEKBlue TGFβ blocking IC50” value is over 200 nM in test [12]; over 200 nM in [13]; 0.01 nM in test [14]; over 200 nM in [36]; over 200 nM in test [37]; 0.01 nM in [38].
